Test results reported in patent US20260242735A1 (UNIVERSIT T BASEL, published 2026).

How the values were obtained:
Assay in all cases: alanine scan, flow cytometry;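 further: HEK293-T cells transiently expressing single-residue alanine mutants of CD33 (alanine swapped to serine), antibody binding read by fluorescence in duplicate, background-subtracted, expressed relative to wild-type CD33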
human CD33 R91A = human CD33 R91A (human, UniProt P20138 18-364)
Method: (§1) An alanine scan on human CD33 was performed to the determine the residues on CD33 that are involved in binding to the antibodies investigated. […] Briefly, a mutation library of CD33 was created by high-throughput, site-directed mutagenesis. Each residue was individually mutated to alanine, with alanine codons mutated to serine. The mutant library was arrayed in 384-well microplates and transiently transfected into HEK293-T. Following transfection, cells were incubated with the indicated antibodies (IgG or Fab) at concentrations pre-determined using an independent immunofluorescence titration curve on wild type CD33. […] Binding of each antibody to each mutant clone was determined in duplicates. For each point, background fluorescence was subtracted from the raw data, which were then normalized to antibody reactivity with wild type CD33.
(§2) Critical residues for antibody binding (outlined in dark grey) were residues whose mutations led to a binding of the test Abs of less than 20%. Additional secondary residues (outlined in light grey) were identified that led to a binding of the test Abs of between 20 and 40% as compared to the wild type CD33.

human CD33 P19A = human CD33 P19A (human, UniProt P20138 18-364)
Method: as §1, §2

human CD33 W22A = human CD33 W22A (human, UniProt P20138 18-364)
Method: as §1, §2

human CD33 E84A = human CD33 E84A (human, UniProt P20138 18-364)
Method: as §1, §2

human CD33 E81A = human CD33 E81A (human, UniProt P20138 18-364)
human CD33 E81A, sequence (P20138 18-364 E81A limits assumed): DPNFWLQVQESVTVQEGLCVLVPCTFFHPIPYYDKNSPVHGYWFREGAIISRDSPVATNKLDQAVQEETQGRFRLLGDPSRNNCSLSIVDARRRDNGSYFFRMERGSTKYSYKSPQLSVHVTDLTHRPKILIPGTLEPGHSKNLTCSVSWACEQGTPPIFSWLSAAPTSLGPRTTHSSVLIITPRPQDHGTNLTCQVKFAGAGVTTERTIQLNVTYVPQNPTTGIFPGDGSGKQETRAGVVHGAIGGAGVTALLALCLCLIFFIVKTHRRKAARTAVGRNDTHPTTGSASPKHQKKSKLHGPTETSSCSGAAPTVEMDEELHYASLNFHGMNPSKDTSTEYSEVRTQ
Method: as §1, §2

human CD33 G64A = human CD33 G64A (human, UniProt P20138 18-364)
human CD33 G64A, sequence (P20138 18-364 G64A limits assumed): as the sequence (P20138 18-364 E81A limits assumed) above, with G47A, A64E counted along it
Method: as §1, §2

human CD33 K52A = human CD33 K52A (human, UniProt P20138 18-364)
Method: as §1, §2

human CD33 P46A = human CD33 P46A (human, UniProt P20138 18-364)
human CD33 P46A, sequence (P20138 18-364 P46A limits assumed): as the sequence (P20138 18-364 E81A limits assumed) above, with P29A, A64E counted along it
Method: as §1, §2

human CD33 P40A = human CD33 P40A (human, UniProt P20138 18-364)
Method: as §1, §2

human CD33 V29A = human CD33 V29A (human, UniProt P20138 18-364)
Method: as §1, §2

human CD33 E63A = human CD33 E63A (human, UniProt P20138 18-364)
Method: as §1, §2

human CD33 P55A = human CD33 P55A (human, UniProt P20138 18-364)
Method: as §1, §2

human CD33 V31A = human CD33 V31A (human, UniProt P20138 18-364)
human CD33 V31A, sequence (P20138 18-364 V31A limits assumed): as the sequence (P20138 18-364 E81A limits assumed) above, with V14A, A64E counted along it
Method: as §1, §2

human CD33 H57A = human CD33 H57A (human, UniProt P20138 18-364)
Method: as §1, §2

human CD33 V56A = human CD33 V56A (human, UniProt P20138 18-364)
Method: as §1, §2

human CD33 N53A = human CD33 N53A (human, UniProt P20138 18-364)
Method: as §1, §2

human CD33 T86A = human CD33 T86A (human, UniProt P20138 18-364)
human CD33 T86A, sequence (P20138 18-364 T86A limits assumed): as the sequence (P20138 18-364 E81A limits assumed) above, with A64E, T69A counted along it
Method: as §1, §2

human CD33 K77A = human CD33 K77A (human, UniProt P20138 18-364)
Method: as §1, §2

human CD33 G88A = human CD33 G88A (human, UniProt P20138 18-364)
human CD33 G88A, sequence (P20138 18-364 G88A limits assumed): as the sequence (P20138 18-364 E81A limits assumed) above, with A64E, G71A counted along it
Method: as §1, §2

human CD33 Q80A = human CD33 Q80A (human, UniProt P20138 18-364)
Method: as §1, §2

human CD33 L92A = human CD33 L92A (human, UniProt P20138 18-364)
Method: as §1, §2

human CD33 S68A = human CD33 S68A (human, UniProt P20138 18-364)
Method: as §1, §2

human CD33 I47A = human CD33 I47A (human, UniProt P20138 18-364)
human CD33 I47A, sequence (P20138 18-364 I47A limits assumed): as the sequence (P20138 18-364 E81A limits assumed) above, with I30A, A64E counted along it
Method: as §1, §2

human CD33 A74S = human CD33 A74S (human, UniProt P20138 18-364)
Method: as §1, §2

human CD33 F43A = human CD33 F43A (human, UniProt P20138 18-364)
Method: as §1, §2

human CD33 H45A = human CD33 H45A (human, UniProt P20138 18-364)
Method: as §1, §2

human CD33 G34A = human CD33 G34A (human, UniProt P20138 18-364)
Method: as §1, §2

human CD33 E85A = human CD33 E85A (human, UniProt P20138 18-364)
Method: as §1, §2

human CD33 W60A = human CD33 W60A (human, UniProt P20138 18-364)
Method: as §1, §2

human CD33 Q24A = human CD33 Q24A (human, UniProt P20138 18-364)
human CD33 Q24A, sequence (P20138 18-364 Q24A limits assumed): as the sequence (P20138 18-364 E81A limits assumed) above, with Q7A, A64E counted along it
Method: as §1, §2

human CD33 T30A = human CD33 T30A (human, UniProt P20138 18-364)
Method: as §1, §2

human CD33 G58A = human CD33 G58A (human, UniProt P20138 18-364)
Method: as §1, §2

human CD33 D79A = human CD33 D79A (human, UniProt P20138 18-364)
human CD33 D79A, sequence (P20138 18-364 D79A limits assumed): as the sequence (P20138 18-364 E81A limits assumed) above, with D62A, A64E counted along it
Method: as §1, §2

human CD33 R62A = human CD33 R62A (human, UniProt P20138 18-364)
human CD33 R62A, sequence (P20138 18-364 R62A limits assumed): as the sequence (P20138 18-364 E81A limits assumed) above, with R45A, A64E counted along it
Method: as §1, §2

human CD33 N20A = human CD33 N20A (human, UniProt P20138 18-364)
Method: as §1, §2

human CD33 S28A = human CD33 S28A (human, UniProt P20138 18-364)
human CD33 S28A, sequence (P20138 18-364 S28A limits assumed): as the sequence (P20138 18-364 E81A limits assumed) above, with S11A, A64E counted along it
Method: as §1, §2

human CD33 D18A = human CD33 D18A (human, UniProt P20138 19-364)
Method: as §1, §2

human CD33 F61A = human CD33 F61A (human, UniProt P20138 18-364)
human CD33 F61A, sequence (P20138 18-364 F61A limits assumed): as the sequence (P20138 18-364 E81A limits assumed) above, with F44A, A64E counted along it
Method: as §1, §2

human CD33 F90A = human CD33 F90A (human, UniProt P20138 18-364)
Method: as §1, §2

human CD33 R69A = human CD33 R69A (human, UniProt P20138 18-364)
human CD33 R69A, sequence (P20138 18-364 R69A limits assumed): as the sequence (P20138 18-364 E81A limits assumed) above, with R52A, A64E counted along it
Method: as §1, §2

human CD33 V82A = human CD33 V82A (human, UniProt P20138 18-364)
human CD33 V82A, sequence (P20138 18-364 V82A limits assumed): as the sequence (P20138 18-364 E81A limits assumed) above, with A64E, V65A counted along it
Method: as §1, §2

human CD33 I67A = human CD33 I67A (human, UniProt P20138 18-364)
Method: as §1, §2

B1: Refmab #1 (antibody, V domains shown)
VH: EVQLVQSGAEVKKPGSSVKVSCKASGYTITDSNIHWVRQAPGQSLEWIGYIYPYNGGTDYNQKFKNRATLTVDNPTNTAYMELSSLRSEDTAFYYCVNGNPWLAYWGQGTLVTVSS
VL: DIQLTQSPSTLSASVGDRVTITCRASESLDNYGIRFLTWFQQKPGKAPKLLMYAASNQGSGVPSRFSGSGSGTEFTLTISSLQPDDFATYYCQQTKEVPWSFGQGTKVEVK
notes: Full-length format is human IgG1 (Absolute Antibody Ab00283-10.0); The alanine scan used IgG or Fab; also called hP67.6
Mean % WT Binding (human CD33 R91A): 82 % WT
Mean % WT Binding (human CD33 P19A): 80.8 % WT
Mean % WT Binding (human CD33 W22A): 79.4 % WT
Mean % WT Binding (human CD33 E84A): 92.2 % WT
Mean % WT Binding (human CD33 E81A): 83 % WT
Mean % WT Binding (human CD33 G64A): 90.6 % WT
Mean % WT Binding (human CD33 K52A): 84.2 % WT
Mean % WT Binding (human CD33 P46A): 64.8 % WT
Mean % WT Binding (human CD33 P40A): 74.5 % WT
Mean % WT Binding (human CD33 V29A): 102 % WT
Mean % WT Binding (human CD33 E63A): 107 % WT
Mean % WT Binding (human CD33 P55A): 98.8 % WT
Mean % WT Binding (human CD33 V31A): 87 % WT
Mean % WT Binding (human CD33 H57A): 78.2 % WT
Mean % WT Binding (human CD33 V56A): 94.3 % WT
Mean % WT Binding (human CD33 N53A): 94.7 % WT
Mean % WT Binding (human CD33 T86A): 79.1 % WT
Mean % WT Binding (human CD33 K77A): 95.6 % WT
Mean % WT Binding (human CD33 G88A): 96.1 % WT
Mean % WT Binding (human CD33 Q80A): 91.6 % WT
Mean % WT Binding (human CD33 L92A): 75.2 % WT
Mean % WT Binding (human CD33 S68A): 91.3 % WT
Mean % WT Binding (human CD33 I47A): 84.2 % WT
Mean % WT Binding (human CD33 A74S): 83.7 % WT
Mean % WT Binding (human CD33 F43A): 66.3 % WT
Mean % WT Binding (human CD33 H45A): 38.7 % WT
Mean % WT Binding (human CD33 G34A): 99.5 % WT
Mean % WT Binding (human CD33 E85A): 88.9 % WT
Mean % WT Binding (human CD33 W60A): 0.7 % WT
Mean % WT Binding (human CD33 Q24A): 74.1 % WT
Mean % WT Binding (human CD33 T30A): 89.3 % WT
Mean % WT Binding (human CD33 G58A): 77.4 % WT
Mean % WT Binding (human CD33 D79A): 88.1 % WT
Mean % WT Binding (human CD33 R62A): 121 % WT
Mean % WT Binding (human CD33 N20A): 1.2 % WT
Mean % WT Binding (human CD33 S28A): 93.9 % WT
Mean % WT Binding (human CD33 D18A): 78.6 % WT
Mean % WT Binding (human CD33 F61A): 95 % WT
Mean % WT Binding (human CD33 F90A): 73.9 % WT
Mean % WT Binding (human CD33 R69A): 94.2 % WT
Mean % WT Binding (human CD33 V82A): 99.6 % WT
Mean % WT Binding (human CD33 I67A): 98.1 % WT

B2: Refmab #3 (antibody, V domains shown)
VH: QVQLVQSGAEVKKPGSSVKVSCKASGYTFTDYNMHWVRQAPGQGLEWIGYIYPYNGGTGYNQKFKSKATITADESTNTAYMELSSLRSEDTAVYYCARGRPAMDYWGQGTLVTVSS
VL: DIQMTQSPSSLSASVGDRVTITCRASESVDNYGISFMNWFQQKPGKAPKLLIYAASNQGSGVPSRFSGSGSGTDFTLTISSLQPDDFATYYCQQSKEVPWTFGQGTKVEIK
notes: Full-length format is human IgG1 Fc silent (PG-LALA); The alanine scan used IgG or Fab
Mean % WT Binding (human CD33 R91A): 150 % WT
Mean % WT Binding (human CD33 P19A): 75.2 % WT
Mean % WT Binding (human CD33 W22A): 58.6 % WT
Mean % WT Binding (human CD33 E84A): 137 % WT
Mean % WT Binding (human CD33 E81A): 114 % WT
Mean % WT Binding (human CD33 G64A): 96.6 % WT
Mean % WT Binding (human CD33 K52A): 80.3 % WT
Mean % WT Binding (human CD33 P46A): 8.8 % WT
Mean % WT Binding (human CD33 P40A): 122 % WT
Mean % WT Binding (human CD33 V29A): 115 % WT
Mean % WT Binding (human CD33 E63A): 124 % WT
Mean % WT Binding (human CD33 P55A): 142 % WT
Mean % WT Binding (human CD33 V31A): 127 % WT
Mean % WT Binding (human CD33 H57A): 182 % WT
Mean % WT Binding (human CD33 V56A): 42.6 % WT
Mean % WT Binding (human CD33 N53A): 116 % WT
Mean % WT Binding (human CD33 T86A): 112 % WT
Mean % WT Binding (human CD33 K77A): 192 % WT
Mean % WT Binding (human CD33 G88A): 88.3 % WT
Mean % WT Binding (human CD33 Q80A): 123 % WT
Mean % WT Binding (human CD33 L92A): 129 % WT
Mean % WT Binding (human CD33 S68A): 115 % WT
Mean % WT Binding (human CD33 I47A): 165 % WT
Mean % WT Binding (human CD33 A74S): 115 % WT
Mean % WT Binding (human CD33 F43A): 49.3 % WT
Mean % WT Binding (human CD33 H45A): 55.1 % WT
Mean % WT Binding (human CD33 G34A): 99.4 % WT
Mean % WT Binding (human CD33 E85A): 112 % WT
Mean % WT Binding (human CD33 W60A): 28.3 % WT
Mean % WT Binding (human CD33 Q24A): 101 % WT
Mean % WT Binding (human CD33 T30A): 104 % WT
Mean % WT Binding (human CD33 G58A): 87.4 % WT
Mean % WT Binding (human CD33 D79A): 105 % WT
Mean % WT Binding (human CD33 R62A): 91.8 % WT
Mean % WT Binding (human CD33 N20A): 34.9 % WT
Mean % WT Binding (human CD33 S28A): 193 % WT
Mean % WT Binding (human CD33 D18A): 37.8 % WT
Mean % WT Binding (human CD33 F61A): 304 % WT
Mean % WT Binding (human CD33 F90A): 138 % WT
Mean % WT Binding (human CD33 R69A): 188 % WT
Mean % WT Binding (human CD33 V82A): 141 % WT
Mean % WT Binding (human CD33 I67A): 142 % WT

B3: Refmab #4 (antibody, V domains shown)
VH: QVQLVQSGAEVKKPGESVKVSCKASGYTFTNYGMNWVKQAPGQGLEWMGWINTYTGEPTYADKFQGRVTMTTDTSTSTAYMEIRNLGGDDTAVYYCARWSWSDGYYVYFDYWGQGTSVTVSS
VL: DIVMTQSPDSLTVSLGERTTINCKSSQSVLDSSTNKNSLAWYQQKPGQPPKLLLSWASTRESGIPDRFSGSGSGTDFTLTIDSPQPEDSATYYCQQSAHFPITFGQGTRLEIK
notes: as for B2
Mean % WT Binding (human CD33 R91A): 100 % WT
Mean % WT Binding (human CD33 P19A): 20.4 % WT
Mean % WT Binding (human CD33 W22A): 187 % WT
Mean % WT Binding (human CD33 E84A): 120 % WT
Mean % WT Binding (human CD33 E81A): 90.6 % WT
Mean % WT Binding (human CD33 G64A): 93.9 % WT
Mean % WT Binding (human CD33 K52A): 9.8 % WT
Mean % WT Binding (human CD33 P46A): 135 % WT
Mean % WT Binding (human CD33 P40A): 43 % WT
Mean % WT Binding (human CD33 V29A): 84.4 % WT
Mean % WT Binding (human CD33 E63A): 84.1 % WT
Mean % WT Binding (human CD33 P55A): 95.4 % WT
Mean % WT Binding (human CD33 V31A): 97.9 % WT
Mean % WT Binding (human CD33 H57A): 67.3 % WT
Mean % WT Binding (human CD33 V56A): 56.8 % WT
Mean % WT Binding (human CD33 N53A): 69 % WT
Mean % WT Binding (human CD33 T86A): 103 % WT
Mean % WT Binding (human CD33 K77A): 123 % WT
Mean % WT Binding (human CD33 G88A): 97.7 % WT
Mean % WT Binding (human CD33 Q80A): 124 % WT
Mean % WT Binding (human CD33 L92A): 85.2 % WT
Mean % WT Binding (human CD33 S68A): 90.4 % WT
Mean % WT Binding (human CD33 I47A): 144 % WT
Mean % WT Binding (human CD33 A74S): 72.5 % WT
Mean % WT Binding (human CD33 F43A): 7.8 % WT
Mean % WT Binding (human CD33 H45A): 134 % WT
Mean % WT Binding (human CD33 G34A): 93.4 % WT
Mean % WT Binding (human CD33 E85A): 110 % WT
Mean % WT Binding (human CD33 W60A): 1 % WT
Mean % WT Binding (human CD33 Q24A): 68.3 % WT
Mean % WT Binding (human CD33 T30A): 104 % WT
Mean % WT Binding (human CD33 G58A): 62.2 % WT
Mean % WT Binding (human CD33 D79A): 74.5 % WT
Mean % WT Binding (human CD33 R62A): 104 % WT
Mean % WT Binding (human CD33 N20A): 158 % WT
Mean % WT Binding (human CD33 S28A): 79.9 % WT
Mean % WT Binding (human CD33 D18A): 110 % WT
Mean % WT Binding (human CD33 F61A): 131 % WT
Mean % WT Binding (human CD33 F90A): 82.3 % WT
Mean % WT Binding (human CD33 R69A): 118 % WT
Mean % WT Binding (human CD33 V82A): 144 % WT
Mean % WT Binding (human CD33 I67A): 67.2 % WT
